# T1: Lrig-1 protein expressed on the surfaces of L cells (human, UniProt Q96JA1 35-1093)
# T1 construct: no signal peptide limits are stated; also called L cells that stably express Lrig-1
# T1 sequence: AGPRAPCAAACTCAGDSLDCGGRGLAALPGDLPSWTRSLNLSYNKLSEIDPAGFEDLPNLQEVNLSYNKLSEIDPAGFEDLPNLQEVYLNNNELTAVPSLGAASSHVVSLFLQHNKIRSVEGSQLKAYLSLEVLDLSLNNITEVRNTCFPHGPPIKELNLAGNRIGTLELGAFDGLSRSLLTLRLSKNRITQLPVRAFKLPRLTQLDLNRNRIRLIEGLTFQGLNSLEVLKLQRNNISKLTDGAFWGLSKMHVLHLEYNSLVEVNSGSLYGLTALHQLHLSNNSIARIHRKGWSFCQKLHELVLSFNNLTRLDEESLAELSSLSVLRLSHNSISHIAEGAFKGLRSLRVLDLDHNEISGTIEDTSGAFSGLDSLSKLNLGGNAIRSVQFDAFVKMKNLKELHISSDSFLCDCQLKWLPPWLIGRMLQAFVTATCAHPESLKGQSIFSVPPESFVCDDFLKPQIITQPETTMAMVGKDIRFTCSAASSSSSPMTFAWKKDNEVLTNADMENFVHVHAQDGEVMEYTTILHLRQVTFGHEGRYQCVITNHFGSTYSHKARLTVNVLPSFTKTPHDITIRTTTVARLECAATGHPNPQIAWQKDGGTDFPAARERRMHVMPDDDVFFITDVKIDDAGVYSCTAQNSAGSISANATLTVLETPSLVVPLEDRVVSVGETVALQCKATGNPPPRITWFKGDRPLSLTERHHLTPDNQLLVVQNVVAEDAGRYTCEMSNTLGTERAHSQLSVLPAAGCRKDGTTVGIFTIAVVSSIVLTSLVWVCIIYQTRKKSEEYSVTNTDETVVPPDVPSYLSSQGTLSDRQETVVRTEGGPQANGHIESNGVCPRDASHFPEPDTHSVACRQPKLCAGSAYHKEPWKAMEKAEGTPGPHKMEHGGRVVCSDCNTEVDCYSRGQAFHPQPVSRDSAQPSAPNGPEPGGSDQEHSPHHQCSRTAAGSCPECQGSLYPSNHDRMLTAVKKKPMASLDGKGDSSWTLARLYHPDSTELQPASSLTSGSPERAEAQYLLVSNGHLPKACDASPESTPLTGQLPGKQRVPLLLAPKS
# Molecular target: T1, Lrig-1 protein expressed on the …
# Experiment: FACS on L cells stably expressing Lrig-1, eFlour 670-conjugated anti-mouse secondary antibody
# Method: In order to examine whether the monoclonal antibodies according to the present invention, produced in Production Examples 1 to 8, well recognize Lrig-1, each of the antibodies of Production Examples 1 to 8 was bound to L cells that stably express Lrig-1, and then an eFlour 670-conjugated secondary antibody capable of recognizing mouse antibodies was added thereto. Next, the binding affinities of the monoclonal antibodies for the Lrig-1 protein were analyzed using FACS.
binder,measurement,value
"GTC210-01 clone (Production Example 1) (antibody, mouse IgG2a, V domains shown, the printed full chains carry mouse constant regions) VH: EVQLLESGGGLVQPGGSLRLSCAASGFTFSGYDMSWVRQAPGKGLEWVSLIYPDSGNKYYADSVKGRFTISRDNSKNTLYLQMNSLRAEDTAVYYCARDAGLSWAGAFDYWGQGTLVTVSS VL: QSVLTQPPSASGTPGQRVTISCSGSSSNIGSNYVTWYQQLPGTAPKLLIYSDSHRPSGVPDRFSGSKSGTSASLAISGLQSEDEADYYCGSWDYSLSAYVFGGGTKLTVLR",binding result,binds
"GTC210-02 clone (Production Example 2) (antibody, mouse IgG2a, V domains shown) VH: EVQLLESGGGLVQPGGSLRLSCAASGFTFSNYYMSWVRQAPGKGLEWVSGISPGDSSTYYADSVKGRFTISRDNSKNTLYLQMNSLRAEDTAVYYCAKGLYSNPNEPFDYWGQGTLVTVSS VL: QSVLTQPPSASGTPGQRVTISCTGSSSNIGSNYVSWYQQLPGTAPKLLIYDDSQRPSGVPDRFSGSKSGTSASLAISGLRSEDEADYYCGTWDYSLNGYVFGGGTKLTVLR",binding result,binds
"GTC210-03 clone (Production Example 3) (antibody, mouse IgG2a, V domains shown) VH: EVQLLESGGGLVQPGGSLRLSCAASGFTFSSYDMSWVRQAPGKGLEWVSGISPDGSNIYYADSVKGRFTISRDNSKNTLYLQMNSLRAEDTAVYYCAKVGLRCRYEACSYAYGMDVWGQGTLVTVSS VL: QSVLTQPPSASGTPGQRVTISCSGSSSNIGSNYVSWYQQLPGTAPKLLIYSDSHRPSGVPDRFSGSKSGTSASLAISGLRSEDEADYYCATWDSSLNGYVFGGGTKLTVLR",binding result,binds
"GTC 210-04 clone (Production Example 4) (antibody, mouse IgG2a, V domains shown, The printed heavy variable region is the same as that of GTC110-01) VH: EVQLLESGGGLVQPGGSLRLSCAASGFTFSNYDMSWVRQAPGKGLEWVSSISPSSGSIYYADSVKGRFTISRDNSKNTLYLQMNSLRAEDTAVYYCAKDLDAFWRPSFDYWGQGTLVTVSS VL: QSVLTQPPSASGTPGQRVTISCTGSSSNIGNNNVNWYQQLPGTAPKLLIYSDSHRPSGVPDRFSGSKSGTSASLAISGLRSEDEADYYCGSWDDSLSAYVFGGGTKLTVLR",binding result,binds
"GTC110-02 clone (Production Example 6) (antibody, mouse IgG2a, V domains shown) VH: EVQLLESGGGLVQPGGSLRLSCAASGFTFSDYYMSWVRQAPGKGLEWVSGISHDSGSKYYADSVKGRFTISRDNSKNTLYLQMNSLRAEDTAVYYCARHWTTFDYWGQGTLVTVSS VL: QSVLTQPPSASGTPGQRVTISCSGSSSNIGSNNVTWYQQLPGTAPKLLIYANSNRPSGVPDRFSGSKSGTSASLAISGLRSEDEADYYCGAWDYSLSAYVFGGGTKLTVLR",binding result,binds
"GTC110-03 clone (Production Example 7) (antibody, mouse IgG2a, V domains shown) VH: EVQLLESGGGLVQPGGSLRLSCAASGFTFSNYAMSWVRQAPGKGLEWVSAIYPGGGSIYYADSVKGRFTISRDNSKNTLYLQMNSLRAEDTAVYYCARDILPCPWGRCYYDYAMDVWGQGTLVTVSS VL: QSVLTQPPSASGTPGQRVTISCSDSSSNIGSNTVSWYQQLPGTAPKLLIYADNNRPSGVPDRFSGSKSGTSASLAISGLRSEDEADYYCGTWDYSLSGYVFGGGTKLTVLR",binding result,binds
"GTC110-04 clone (Production Example 8) (antibody, mouse IgG2a, V domains shown, also called GTC110-04 antibody; GTTC110-04 antibody) VH: EVQLLESGGGLVQPGGSLRLSCAASGFTFSNYAMSWVRQAPGKGLEWVSVISHGGGSTYYADSVKGRFTISRDNSKNTLYLQMNSLRAEDTAVYYCARVISNCHLGVCYYSNGMDVWGQGTLVTVSS VL: QSVLTQPPSASGTPGQRVTISCSGSSSNIGNNDVYWYQQLPGTAPKLLIYSDSQRPSGVPDRFSGSKSGTSASLAISGLRSEDEADYYCGTWDYSLSGYVFGGGTKLTVLR",binding result,binds
